In assay [1] the target is FANCB-FAAP100 heterodimer (Gallus gallus) (Gallus gallus). Briefly: cryo-EM structure.
The target is the same in assay [2]. Briefly: cryo-EM structure. The source holds these as a separate data set.

Read-outs that look alike come from different tables or passages of the source.

Experimental findings from paper PMC6858856 are described below.

One may read the stoichiometry N as the number of molecules, sites or subunits per partner or assembly.

With “FANCB-FAAP100 heterodimer (Gallus gallus) (complex)”, the stoichiometry N in assay [1] and in assay [2] was 2 throughout.
